Assays:
Assay in all cases: SPR; Biacore 8K; EGFR extracellular domain immobilised on CM5 chip by amine coupling (~1000 RU); VHHs injected in two-fold serial dilutions at 30 μl/min; 25°C; PBS with 0.005% Tween20
Conditions in all cases: both partners purified
[1] = target: T1, extracellular domain of epidermal growth factor receptor (EGFR), residues 1–618 (Homo sapiens (; human EGFR in …, UniProt P00533)
T1 construct: Epidermal growth factor receptor (EGFR), extracellular domain, residues 1-618; also called extracellular domain of EGFR; source: Sf9 expression system (baculovirus), purified from the culture supernatant (Ni-NTA, SEC)

[2] = target: T1, extracellular domain of epidermal …; remark: listed apart in the source
[3] = target: T1, extracellular domain of epidermal …; remark: listed apart in the source

Kd [1] [nM] | koff [1] [s⁻¹] | kon [1] [M⁻¹ s⁻¹] | Kd [2] [nM] | koff [2] [s⁻¹] | kon [2] [M⁻¹ s⁻¹] | Kd [3] [nM] | Binder
191 | 0.137 | 713000 | – | – | – | – | 7D12‐Vob Y42F (VHH, PDB 7XL1) with the stated change; IMGT numbering; source: E. coli BL21(DE3), periplasmic fraction, purified (Ni-NTA, SEC)) VHH: EVQLVESGGGLVQPGGSLRLSCAASGRTSRSYGMGWFRQAPGKGRELVAGISWRGDSTGYADSVKGRFTISRDNAKNTLYLQMNSLRPEDTAVYYCAFAAGSAWYGTLYEYDYWGQGTLVTVSS
– | – | – | 1450 | 0.247 | 169000 | – | 7D12‐Vob (VHH, CDRs of 7D12 grafted onto the framework regions of Vobarilizumab; PDB 7XL1; also called chimeric VHH; source: E. coli BL21(DE3), periplasmic fraction, purified (Ni-NTA, SEC)) VHH: EVQLVESGGGLVQPGGSLRLSCAASGRTSRSYGMGWYRQAPGKGRELVAGISWRGDSTGYADSVKGRFTISRDNAKNTLYLQMNSLRPEDTAVYYCAFAAGSAWYGTLYEYDYWGQGTLVTVSS
482 | 0.152 | 316000 | – | – | – | – | 7D12‐Vob F106A (VHH, PDB 7XL1) with the stated change; IMGT numbering; source: E. coli BL21(DE3), periplasmic fraction, purified (Ni-NTA, SEC)) VHH: EVQLVESGGGLVQPGGSLRLSCAASGRTSRSYGMGWYRQAPGKGRELVAGISWRGDSTGYADSVKGRFTISRDNAKNTLYLQMNSLRPEDTAVYYCAAAAGSAWYGTLYEYDYWGQGTLVTVSS
38 | 0.0693 | 1.82e+06 | – | – | – | – | 7D12‐Vob Y42F‐L52F‐F106A (VHH, PDB 7XL1) with the stated changes; IMGT numbering; also called triple mutant; source: E. coli BL21(DE3), periplasmic fraction, purified (Ni-NTA, SEC)) VHH: EVQLVESGGGLVQPGGSLRLSCAASGRTSRSYGMGWFRQAPGKGREFVAGISWRGDSTGYADSVKGRFTISRDNAKNTLYLQMNSLRPEDTAVYYCAAAAGSAWYGTLYEYDYWGQGTLVTVSS
358 | 0.123 | 344000 | – | – | – | – | 7D12‐Vob L52F (VHH, PDB 7XL1) with the stated change; IMGT numbering; source: E. coli BL21(DE3), periplasmic fraction, purified (Ni-NTA, SEC)) VHH: EVQLVESGGGLVQPGGSLRLSCAASGRTSRSYGMGWYRQAPGKGREFVAGISWRGDSTGYADSVKGRFTISRDNAKNTLYLQMNSLRPEDTAVYYCAFAAGSAWYGTLYEYDYWGQGTLVTVSS
110 | 0.0799 | 729000 | – | – | – | – | 7D12‐Vob Y42F‐L52F (VHH, PDB 7XL1) with the stated changes; IMGT numbering; source: E. coli BL21(DE3), periplasmic fraction, purified (Ni-NTA, SEC)) VHH: EVQLVESGGGLVQPGGSLRLSCAASGRTSRSYGMGWFRQAPGKGREFVAGISWRGDSTGYADSVKGRFTISRDNAKNTLYLQMNSLRPEDTAVYYCAFAAGSAWYGTLYEYDYWGQGTLVTVSS
– | – | – | – | – | – | 4.7 | 7D12‐Vob E1Q‐Y42F‐L52F‐F106A (VHH, PDB 7XL1) with the stated changes; IMGT numbering; also called quadruple mutant; source: E. coli BL21(DE3), periplasmic fraction, purified (Ni-NTA, SEC)) VHH: QVQLVESGGGLVQPGGSLRLSCAASGRTSRSYGMGWFRQAPGKGREFVAGISWRGDSTGYADSVKGRFTISRDNAKNTLYLQMNSLRPEDTAVYYCAAAAGSAWYGTLYEYDYWGQGTLVTVSS

Source: article PMC9601775 (Protein Science : A Publication of the Protein Society, 2022)
